From US20140227255A1 (Hoffmann-La Roche, published 2014)

Target: T1, Soluble human HER3 extracellular domain fused to Streptavidin Binding Protein (SBP) (human, UniProt P21860 20-643)
T1 construct: Order of the parts follows the printed name SBP-HER3 and is not otherwise stated; Used as HEK293 supernatant captured on streptavidin plates; also called SBP-HER3
Test: ELISA, SBP-HER3 ECD captured on streptavidin plate; antibody concentration read from HER3 binding
Protocol: Soluble human HER3 extracellular domain fused to Streptavidin Binding Protein (SBP) was captured on a sreptavidine plate. […] For the standard coating, SBP-HER3 containing HEK293 supernatant was diluted (between 1:15 and 1:40) and incubated overnight at 2-80 C (25 μl per well). Intensive washing of the microtiter plate is necessary to remove remaining unbound SBP-HER3.
Antibodies according to the invention antibody were tested either undiluted or using a 12-step-dilution. 12.5 μl per well of each sample was incubated for 90 min at room temperature.

Row | Binder | hu_HER3-ECD-ELISA c(µg/ml)
1 | Mab 205.10.1 (antibody, V domains shown, Humanized anti-HER3 antibody; Only variable domains are tied to it) VH: QVQLVQSGAEVKKPGASVKVSCKASGYTFRSSYISWVRQAPGQGLEWMGWIYAGTGSPSYNQKLQGRVTMTTDTSTSTAYMELRSLRSDDTAVYYCARHRDYYSNSLTYWGQGTLVTVSS VL: DIVMTQSPDSLAVSLGERATINCKSSQSLLNSGNQKNYLTWYQQKPGQPPKLLIYWASTRESGVPDRFSGSGSGTDFTLTISSLQAEDVAVYYCQSDYSYPYTFGQGTKLEIK | 583 µg/mL
2 | Mab 205.10.3 (antibody, V domains shown, Humanized anti-HER3 antibody; Only variable domains are tied to it) VH: QVQLVQSGAEVKKPGASVKVSCKASGYTFRSSYISWVRQAPGQGLEWMGWIYAGTGSPSYNQKLQGRVTMTTDTSTSTAYMELRSLRSDDTAVYYCARHRDYYSNSLTYWGQGTLVTVSS VL: DIVMTQSPDSLAVSLGERATINCKSSQSLLNSGNQKNYLTWYQQKPGQPPKLLIYWASTRESGVPDRFSGSGSGTDFTLTISSLQAEDVSIYYCQSDYSYPYTFGQGTKLEIK | 505 µg/mL
